Assay results: US20250277767A1

Legend:
[1] = biological target: peptide #49 (cyclic EspB peptide, positions 193-207) (Enteropathogenic Escherichia coli (EPEC)); test: ELISA, plate coated with peptide #49, serially diluted mAb
[2] = biological target: peptide #50 (cyclic EspB peptide, positions 197-211) (Enteropathogenic Escherichia coli (EPEC)); test: ELISA, plate coated with peptide #50, serially diluted mAb
[3] = biological target: peptide #49+50 (combined sequences of peptides #49 and #50) (Enteropathogenic Escherichia coli (EPEC)); test: ELISA, plate coated with peptide #49+50, serially diluted mAb
[4] = biological target: mAb-EspB-B7

Row | Binder | EC50 (read off the curve) [1] | EC50 (read off the curve) [2] | EC50 (read off the curve) [3] | IC50 (read off the curve) [4]
1 | mAb-EspB-B7 (antibody, V domains shown) VH: EVQLLESGGGLVQPGGSLRLSCAASGFTFSHYAMNWVRQAPGKGLEWVSAINSNGDSTYYPDTVKDRFTISRDNSKNTLYLQMNSLRAEDTAVYYCARDRRAGYFDYWGQGTLVTVSS VL: DIVLTQPPSASGTPGQRVTISCSGSRDNIGKNYVSWYQQLPGTAPKLLIYRNNQRPSGVPDRFSGSKSGTSASLAISGLRSEDEADYYCSAWDTSLNAYVFGPGTQLTVL | 0.5 µg/mL | 0.5 µg/mL | 0.3 µg/mL | –
2 | CTSAQKASQVAEEAADAAQEC (modifications not checked) [peptide #49+50 (combined sequences of peptides #49 and #50)] | – | – | – | 2 µg/mL
